# B1: TPR t1 (parent)
# chain: GACCAAUCUGCCCUCAGAGCUCGAGAACAUCUUCGGAUGCAGAGGAGGCAGGCUUCGGUGGCGCGAUAGCGCCAACGUCCUCAACCUCCAAUGCAUCCCACCACAUGAUGAUGCCUGAAGAGCCUUGGUUUUUUG
# Variants of: B1
# Test: polymerase ribozyme fitness, log enrichment relative to wild type (log ratio); higher = more active; in vitro selection for triplet polymerase activity
# Summary of the method: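 After PCR construction and transcription, each subunit's mutant library from a heterodimeric triplet polymerase ribozyme was annealed with a biotinylated primer, the partner subunit and triplets. Incubation was frozen, at −7 °C, and extended constructs were gel-excised, bound to streptavidin beads and amplified by RT-PCR, in one selection round done in triplicate. Fitness is the logarithm of a genotype's enrichment divided by that of the wild type, from inverse-variance-weighted replicate averages of Illumina-sequenced inputs and outputs. The base of the logarithm is 2, and genotypes needed ≥10 input reads and ≥1 read per output.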
row,Variant,polymerase ribozyme fitness (log ratio)
1,GACCAAUCUGCCCUCAGAGCUCGAGGAAAUCUUCGGAUGCAGAGGAGGCAGGCUUCGGUGGCGCGAUAGCGCCAACGUCCUCAACCUCCAAUGCAUCCCACCACAUGAUGAUACCUGAAGAGCCUUGGUUUUUUG,-4.3
2,GACCAAUCUGCCCUCAGAGCUCGAGAACAUCUUCGGAUGCAGAGGAGGCAUGCUUCGGUCGCGCGAUAGCGCCAACGUCCUCAACCUCCAAUGCAUCCCACCACAUGAUGAUGCCUGAAGAGCCUUGGUUUUUUG,-2.36
3,GACAAAUCUGCCCUCAGAGCUCGAGAACAUCUUCGGAUGCAGAGGAGGCAGGCUUCGGUGGCGCGAUAGCGCCAACGUCCUCAAACUCCAAUGCAUCCCACCACAUGAUGAUGCCUGAAGAGCCUUGGUUUUUUG,-2.93
4,GACCAAUCUGCCCUCAGAGAUCGAGAAGAUCUUCGGAUGCAGAGGAGGCAGGCUUCGGUGGCGCGAUAGGGCCAACGUCCUCUACCUCCAAUGCAUCCUACCACAUGAUGAUUCCUGAAGAGCCUUGGUUUUUUG,-6.88
5,GACCAAUCUGCCCUCAGAUCUCGAGAACAUCUUCGGAUCCAGAGGAGGCAGGUUUCGGUGGCGCGAUAGCGCCAACGUCCUCAACCUCCAAUGCAUCCCACCACAUGAUGAUGCCUGAAGAGCAUUGGUUUUUUG,-2.93
6,GACCAAUCUACCCUCAGAGCUCGAGAACAUCUUCGGAUGCAGAGGAGGCAGGCUUCGGUGGCGCGAUAGCGCCAACGUCCUCAACCUCCAAUUCAUCCCACAACAUGAUGAUGCCUGAAGAGCCUUGGUUUUUUG,-3.7
7,GACCAAUCUGCCCUCAGAGCUCGAGAACAUCUUCGGAUGCAGAGGAGGCAGGCUUCGGUGGCGCGAUAGCUCCAACGUCAUCAACCUCCAAUGCAUCCCACCACAUGAUGAUGCCUGAAGAGCCUUGGUUUUUUG,-5.28
8,GACCAAUCUGCCCUCAGAGCUCGAGAACAUCUUCGGAUGCAGAGGAGGCAGGCUUCGGUGGCGCGAUGGCGCCAACGUCCUCAACCUCCAAUGCAUCCCACCACAUGAUGAUGCCUGAAGAACCUUGGUUUUUUG,-2.55
9,GACCAAUCUGCCCUCAGAGCUUGAGAACAUCUUCGGAUGCAGAGGAGGCAGGCUUCGGUGGCGCGAUAGCGCCAACGUCCUCAACCUCCAAUGCAUCCCACCACAUGAUGAUGCCUGAAUAGCCUUGGUUUUUUG,-3.75
10,GACCAAUCUGCCCUCAGAGCUCGAGAACAUCUUAGGAUGCAGAGGAGGCAGGCUUCGGUGGCGCGAUAGCGCGAACGUCCUCAACCUCCAAUGCAUCCCACCACAUGAUGAUGCCUGAAAAGCGUUGGUUUUAUG,-1.12
11,GACCAAUCUGCCCUCAGAGCUCGAGAACAUCUUCGGAUGCAGAGCAGGCAGGCUGCGGUGGCGCGAUAUCGCCAACGUCCUCAACCUCCAAUGCAUCCCACCACAUAAUGAUGCCUGAAGAGCCUUGGUUUUUUG,-5.92
12,GACCAAUCUGCCCUAAGAGCUCGAGAACAUCUUCGGAUGCAGAGGAGGCAGGGUUCGGUGGCGCGAUAGCGCCAACGUCCUCAACCUCCAAUGCAUCCCACUACAUGAUGAUGCCUGAAGAGCCUUGGUUUUUUG,-4.5
13,GACCAAUCUGCCCUCAGAGCUCGAGAACAUCUUCGGAUACAGAGGAGGCAGGCUUCGGUGGCGCGUUAGCGCCAACGUCCUCAACCUCCAAUGCAUCCCACCACAUGAUGAUGCCUGAAGAGUCUUGGUUUUUUG,-0.175
14,GACCAAUCUGCCCUCAGAGCUCGAGAACAUCUUCGGAUGCAGAGGAGGCAGGCUUCGAUCGCGCGAUAGCGCCAACGUCCUCAACCUCCAAUGCAUCCCACCACAUGAUGAUGCCUGAACAGCCUUGGUUUUUUG,-3.34
15,GACCAAUCUGCCCUCAGUGCUCGAGCACAUCUUCGGAUGCAGAGGAGGCAGGCUUCGGUGGUGCGAUAGCGCCAACGUCCUCAACCUCCAAUGCAUCCCACCACAUGAUGAUGCCUGAACAGCCUGGGUUUUUUG,-7.02
16,GACCAAUCUGCACUCAGAGCUCGAGAACAUCUCCGGAUGCAGAGGAGGCAGGCUUCGGUGGCGCGAUAGCGCCAACGUCCUCAACCUCCAAUGCAUCCCACCCCAUGAUGAUUGCUGAAGAGCCUUUGUUUUUUG,-6.43
17,GACCCAUCUGCCCUCAGAGCUCGAGAACAUCUUCGGAUGCAGAGGAUCCAGGCUUCGGUGGCGCGAUAGCACCAACGUCCUCAACCUCCAAUGCAUCCCACAACAUGAUGAUGCCUGAAGAGCCUUGGUUUUUUG,-6.35
18,GACCAAUCUGCCCUCAGAGCUCGAGAACAUCUUCGGAUGCAGAGGAGGCUGGCUUCGGUGGCGCGAUAGCGCCAACGUCCUCAACCUCCAAUGCCUCCCACCACAUGAUGAUGCCUGAAGAGCCUUGGUUUUUUG,-1.9
19,GACCAAUCUGCCCUCAGAGCUCGAGAACAUCUUCGGAUGCAGAGGAGGCAGGCUUCGGUGGCGCGAUAGCGCCAACGUCCUCAACCUCCAAUGCAUCCCACCACAUGAUGAUGCUUGAAGAGCCUUGAUUUUUUG,-2.99
20,GACCAAUCUGCCCUCAGAGCUCGAGAACAUCUUCGGAUGCAGAGGAGGCAGGCUUCGGUGGCGCGAUAGGGCCAACGUCCUCAACCUCCAAUGCAUCCCACCACAUGAUGAUGCCUGAAGAGGCUUGGUUUUUUG,-0.392
21,GACCAAUCUGCCGUCAGAGCUUGAGAACAUCUUCGGAUGCAGAGGAGGCAGGCUUCGGUGGCUCGAUAGCGCCAACGUUCUCAACCUCCAAUGCAUCCCACCACAUGAUGAUGCCUGAAGAACCUUGGUUUUUUG,-7.09

# — the RNAGym collection of RNA variant scans (doi:10.1073/pnas.2313332121)
